T1: His6Sumo-MED25(407-680) (Arabidopsis, UniProt Q7XYY2 407-680)
T1 sequence (looked up): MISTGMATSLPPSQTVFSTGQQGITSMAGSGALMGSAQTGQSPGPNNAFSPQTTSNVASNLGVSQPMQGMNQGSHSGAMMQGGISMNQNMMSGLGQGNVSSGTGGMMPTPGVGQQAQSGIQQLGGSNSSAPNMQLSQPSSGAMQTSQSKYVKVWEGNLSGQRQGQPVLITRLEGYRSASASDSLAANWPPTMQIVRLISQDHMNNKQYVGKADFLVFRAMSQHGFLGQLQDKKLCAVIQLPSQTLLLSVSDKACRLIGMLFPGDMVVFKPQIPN

B1: His6Sumo-MED25(540-680) (domain or fragment, Arabidopsis, UniProt Q7XYY2 540-680, looked up)
chain: QLSQPSSGAMQTSQSKYVKVWEGNLSGQRQGQPVLITRLEGYRSASASDSLAANWPPTMQIVRLISQDHMNNKQYVGKADFLVFRAMSQHGFLGQLQDKKLCAVIQLPSQTLLLSVSDKACRLIGMLFPGDMVVFKPQIPN
B2: biotin-MYC3(5-242) (domain or fragment, Arabidopsis, UniProt Q9FIP9 5-242, looked up)
chain: TSSINFLTSDDDASAAAMEAFIGTNHHSSLFPPPPQQPPQPQFNEDTLQQRLQALIESAGENWTYAIFWQISHDFDSSTGDNTVILGWGDGYYKGEEDKEKKKNNTNTAEQEHRKRVIRELNSLISGGIGVSDESNDEEVTDTEWFFLVSMTQSFVNGVGLPGESFLNSRVIWLSGSGALTGSGCERAGQGQIYGLKTMVCIATQNGVVELGSSEVISQSSDLMHKVNNLFNFNNGGG
modifications: biotin (site not stated)
B3: biotin-MYC3(44-238) (domain or fragment, Arabidopsis, UniProt Q9FIP9 44-238, looked up)
chain: QPQFNEDTLQQRLQALIESAGENWTYAIFWQISHDFDSSTGDNTVILGWGDGYYKGEEDKEKKKNNTNTAEQEHRKRVIRELNSLISGGIGVSDESNDEEVTDTEWFFLVSMTQSFVNGVGLPGESFLNSRVIWLSGSGALTGSGCERAGQGQIYGLKTMVCIATQNGVVELGSSEVISQSSDLMHKVNNLFNFN
modifications: biotin (site not stated)

Holding throughout (assay): AlphaScreen or HTRF
The experiment “biotin-MYC3(5-242)” has as its target B2.
The target of experiment [1] is B3.
Experiment [2] concerns the target B3. This is another data set of the same source.
The target of a further experiment is T1, His6Sumo-MED25(407-680).

As usually defined, the IC50 is the point on the concentration scale where inhibition reaches its midpoint. A high value points to weaker potency. With SVPQARKASLARFLEKRKERLM (peptide, UniProt Q8W4J8 218-239, looked up) [Jas22^JAZ9 peptide], the IC50 with biotin-MYC3(5-242) is approximately 0.49 µM; in the experiment with biotin-MYC3(44-238) [1] it was approximately 0.42 µM.
In the case of B1, the binding result with biotin-MYC3(44-238) [2] is “binds”.
B2: the binding result with His6Sumo-MED25(407-680) is recorded as “binds”.
Still for that read-out and setting: the same measure for B3: “binds”.

Source of the values: publication PMC4567411 (Nature, 2015).
